The assay deals with Dengue virus serotype 3 nonstructural protein 5 with a six-residue deletion in the priming loop (DENV3 NS5-Δ6) (dengue virus serotype 3 (DENV3)). As to the kind of experiment: crystal structure.

By stoichiometry N is commonly meant a count of units in the complex or per binding partner. “Dengue virus serotype 3 nonstructural protein 5 with a six-residue deletion in the priming loop (DENV3 NS5-Δ6) (enzyme)” had a stoichiometry N of 2.
